Data from the supplement of paper PMC10567573.
± gives the standard deviation.

Experiment: protein stability index of a GFP-peptide fusion (GPS, HEK-293T) (PSI 1-6); higher = more stable
[1] = treatment: DMSO, c terminus: a fixed tail appended
[2] = treatment: MLN4924 1 uM, 8 h, c terminus: a fixed tail appended
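Also: 24-mer peptide tiles fused after GFP, lentivirally expressed, FACS-sorted into six equal bins by GFP/DsRed ratio, decoded by Illumina sequencing, PSI is the read-weighted mean bin number.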

Sequence | protein stability index [1] | protein stability index [2] | protein stability index (treatment: DMSO, c terminus: native) | protein stability index (treatment: MLN4924 1 uM, 8 h, c terminus: native)
CKLQEQLEATVKKLEESKQLLKNN [SASS6] | 3.7 ± 0.15 | 3.47 ± 0.26 | – | –
LKPTASKLGAPLSGLQGLPECTRC [PDLIM4] | 3.24 ± 0.31 | 3.44 ± 0.12 | – | –
SEEQFRQRSPLGGDVLHAHLDIWK [SPDEF] | 3.34 ± 0.36 | 3.27 ± 0.1 | – | –
TVPEILVHNIVIFMRTSVKISYIG [TMEM106C] | 3.01 ± 0.38 | 3.11 ± 0.29 | – | –
MPSSTTQKDSYQPPGNVYWPLRGK [SPAG8] | 4.21 ± 0.28 | 4.22 ± 0.28 | – | –
DKTPVLLTDYPVDLDEIAYFTWAS [MYORG] | 2.64 ± 0.36 | 2.86 ± 0.4 | – | –
GLPLAASMQEDEQSGRDLQQYQSQ [SEC22B] | 5.34 ± 0.24 | 5.43 ± 0.3 | – | –
FNFKFNLTEDMYAQDSIELLTTSG [CNOT7] | 1.825 ± 0.003 | – | – | –
SLGIELHCNVSNILHMNGSQSSTY [ZNF396] | 2.18 ± 0.38 | 2.16 ± 0.27 | – | –
SYAHSVEDTHVQIGQVHEEFKQNI [FCHO1] | 4.55 ± 0.25 | 4.7 ± 0.081 | – | –
ELVLRKDCPKIVEPHGKMFNEQTW [ZSCAN9] | 2.86 ± 0.38 | 2.78 ± 0.3 | – | –
RALVRQFGQQDWKFLASHFPNRTD [MYBL2] | 3.09 ± 0.41 | 2.93 ± 0.19 | – | –
DVYRDGTGVVEFVRKEDMTYAVRK [SRSF1] | 3.96 ± 0.26 | 4.47 ± 0.18 | – | –
QVGTMALWASQREKEVLRRERAVE [ZBED2] | 4.11 ± 0.26 | 4.31 ± 0.18 | – | –
KSKPDRKRAESDSRKSSIPNNKEI [PTPRD] | 5.329 ± 0.046 | 5.46 ± 0.16 | – | –
ATGDYLFEPHSGEDYSRDEDHIAH [SRPK2] | 5.23 ± 0.2 | 5.28 ± 0.27 | – | –
PLLQSIHQLDFVQVKASSPVPATP [TRIM9] | 3.02 ± 0.18 | 3.2 ± 0.21 | – | –
EAAVEALELLGATYVDKKRDLLGA [FEM1A] | 3.27 ± 0.31 | 3.49 ± 0.21 | – | –
SGWIFFYVPSSESFIIYLKNIVIA [P2RY14] | 3.26 ± 0.53 | 3.09 ± 0.88 | – | –
NTHAKSILNSMNSLRKSNTLCDVT [KLHL12] | 2.82 ± 0.4 | 3.27 ± 0.43 | – | –
NAQIPELKSDLEKASALNTKIRAL [CD207] | 4.016 ± 0.023 | 3.86 ± 0.48 | – | –
LDAMNYHLMPFRQHCRQSLASRIR [KLHL14] | 2.48 ± 0.46 | 2.2 ± 0.24 | – | –
DSGQYWPSIYHTMASPCSAMAYHH [WDFY1] | 2.34 ± 0.2 | 2.38 ± 0.13 | – | –

Sequence | protein stability index [1] | protein stability index [2] | protein stability index (treatment: DMSO, c terminus: native) | protein stability index (treatment: MLN4924 1 uM, 8 h, c terminus: native)
HLELTRKLQDLIKDVLRYGEEQLK [FCHO1] | 2.95 ± 0.52 | 2.71 ± 0.69 | – | –
ARAFAQRYLADLLPSVFGSLRDSG [RSPH3] | 2.29 ± 0.41 | 2.25 ± 0.28 | – | –
LILESQNWRYATGGWETVFRPVSE [FUT8] | 2.42 ± 0.22 | 2.29 ± 0.11 | – | –
SRIQEWYEFQIPYICPDYQSYFKT [KRT36] | 2.29 ± 0.31 | 2.17 ± 0.36 | – | –
EELDGLCFKGELPLRAVHINLEEK [PLEKHN1] | 4.41 ± 0.26 | 4.44 ± 0.29 | – | –
EYEAGRAGPGGGAERRRAGRLLLT [ESRRA] | 4.23 ± 0.37 | 4.33 ± 0.18 | – | –
RVLMYGSELDADHPGFKDNVYRKR [TPH1] | 3.59 ± 0.11 | 3.8 ± 0.29 | – | –
QPPEMIGPMRPEQFSDEVEPATPE [GAGE1] | 5.03 ± 0.33 | 5.17 ± 0.17 | – | –
DHFQKFLPTVGGQLGTAGQGFSYS [MYOZ1] | 2.81 ± 0.13 | 2.79 ± 0.27 | – | –
SVDGLTLSPDPEERPGAEGAPLLP [ACBD3] | 5.46 ± 0.19 | 5.54 ± 0.18 | – | –
SPNFDGWFKTRRKEMTQKLEALHL [DENND6A] | 2.91 ± 0.18 | 3.2 ± 0.41 | – | –
QPQDVDLALDSGASLLHLAVEAGQ [RIPK4] | 4.44 ± 0.51 | 4.58 ± 0.71 | – | –
FIGEESVAAGEKSILTDNPTWIID [IMPA1] | 2.82 ± 0.46 | 3.38 ± 0.28 | – | –
TNGELNTDDPTAGRSNAPITAPTE [CSNK1G3] | 5.41 ± 0.15 | 5.41 ± 0.16 | – | –
SNIVIMLVGNKSDLRHLRAVPTDE [RAB11A] | 2.42 ± 0.34 | 2.25 ± 0.28 | – | –
LVRETDELRRNHCFQDFKEEKPQE [ELOA2] | 4.28 ± 0.24 | 4.41 ± 0.28 | – | –
PKMRSKEQILELLVLEQFLTILPT [ZNF449] | 3.07 ± 0.96 | 3.36 ± 0.73 | – | –
QNLANEEVRKLTQRLEEMTQRMEA [MATN2] | 4.67 ± 0.14 | 4.87 ± 0.39 | – | –
ESHKAKNESWIKSHFSRLSEEKLA [C10orf62] | 3.81 ± 0.17 | 3.86 ± 0.35 | – | –
MTETDAFYKREMFDPAEKYKMDHR [CASP6] | 4.05 ± 0.25 | 4.1 ± 0.29 | – | –
FLQRGADTNLGRLEDGQTPLHLSA [ASB7] | 3.61 ± 0.17 | 3.76 ± 0.26 | – | –
HQRKHAGEKPFECRQRLIFEQTPA [ZNF8] | 3.65 ± 0.2 | 3.64 ± 0.16 | – | –
EPQGLGYWEAWRHHCQGKDLTEWV [SPACA3] | 3.85 ± 0.2 | 3.8 ± 0.45 | – | –

Sequence | protein stability index [1] | protein stability index [2] | protein stability index (treatment: DMSO, c terminus: native) | protein stability index (treatment: MLN4924 1 uM, 8 h, c terminus: native)
SQSPRAAGPREGHSHSHHHHHRG [PBXIP1] | – | – | 3.02 ± 0.69 | 4.03 ± 0.49
QEILELIDREVDLMMRGVKHHNLE [IQUB] | 2.67 ± 0.46 | 2.64 ± 0.5 | – | –
FCDRCCSQKVPLRRMCFVDPVRQC [ZFYVE21] | 2.29 ± 0.14 | 2.04 ± 0.15 | – | –
AEAKRDAGIREAKAKQEKVSAQYL [FLOT1] | 4.88 ± 0.32 | 5.094 ± 0.024 | – | –
ILNTTGTYSGKAADVWSLGVMLYT [TRIB1] | 2.7 ± 0.76 | 2.25 ± 0.6 | – | –
NIDIQNGFLLRYAVIKSNHSYCRM [ASB7] | 2.57 ± 0.38 | 2.54 ± 0.36 | – | –
LYFLFADAMQLNDKWQGLCWPMMD [CMTM3] | 3.07 ± 0.31 | 3.05 ± 0.47 | – | –
SIDKDEEFAGSSPQSSKSTVVKSL [FAN1] | 5.165 ± 0.042 | 5.27 ± 0.27 | – | –
SKGQPRSQEESEEGEEDATSEVDK [CHGB] | 5.59 ± 0.21 | 5.4 ± 0.19 | – | –
QRFGEALQDQEKAWGFPENATAPR [ELOA2] | 4.78 ± 0.23 | 4.68 ± 0.46 | – | –
DRESLCGASTSCLLPVQVVTEHPL [PCDHGC5] | 4.16 ± 0.18 | 4.39 ± 0.27 | – | –
VSCPKSEVRAKFKFSLLNAKREET [SPOPL] | 3.67 ± 0.3 | 3.53 ± 0.19 | – | –
ESNVSMASLGEKRDHHSTHYRASE [CHGB] | 4.71 ± 0.27 | 4.79 ± 0.33 | – | –
VVNESTVCLMGHERRQTLNLISLL [TENT5C] | 2.18 ± 0.23 | 2.31 ± 0.12 | – | –
ETALTLACCGGFLEVADFLIKAGA [ANKRD17] | 2.54 ± 0.9 | 2.65 ± 0.76 | – | –
ASCLQELFKAHFRGEVLPEEITEE [INTS3] | 3.71 ± 0.34 | 3.95 ± 0.12 | – | –
FTYDPWIGKLLYLEDFFVMSDYRG [SAT1] | 2.88 ± 0.51 | 2.79 ± 0.76 | – | –
GTCALWDVESGQLLQSFHGHGADV [GNB5] | 2.75 ± 0.28 | 2.99 ± 0.51 | – | –
RLGRCMRRLRDMVERPHSGLPGKV [KCNG1] | 2.4 ± 0.17 | 2.69 ± 0.24 | – | –
VYLHFLSVVTEDGPEPKDKGSLPQ [ZNF232] | 2.27 ± 0.18 | 2.35 ± 0.33 | – | –
GNKSDLKQLRQVTKEEGLALAREF [RIT1] | 4.31 ± 0.25 | 4.26 ± 0.12 | – | –
TSEVDKRRTRPRHHHGRSRPDRSS [CHGB] | 5.07 ± 0.37 | 5.06 ± 0.31 | – | –
NILEKEVLPPIHAYGNRTECRNPQ [FEM1B] | 4.03 ± 0.079 | 4.18 ± 0.11 | – | –

Sequence | protein stability index [1] | protein stability index [2] | protein stability index (treatment: DMSO, c terminus: native) | protein stability index (treatment: MLN4924 1 uM, 8 h, c terminus: native)
LFSIAPLIYGSMEMFPAAQQLYRH [JAGN1] | 2.55 ± 0.41 | 2.6 ± 0.57 | – | –
VKYGLAATVWSSNVGRVHRVAKKL [ALDH8A1] | 2.48 ± 0.33 | 2.43 ± 0.4 | – | –
PEIDMFLNVATFLDPRYKRLPFLS [ZBED1] | 2.42 ± 0.43 | 2.25 ± 0.48 | – | –
IDALLEFDVHPNELTNGVINAAFM [SNAP91] | 2.39 ± 0.38 | 2.32 ± 0.36 | – | –
VKDDELDAMLKEASGPINFTMFLN [MYL5] | 3.39 ± 0.082 | 3.5 ± 0.19 | – | –
LNLAMVYRYCCKLNKKLKSYSLSR [CDC14A] | 3.32 ± 0.69 | 3.04 ± 0.49 | – | –
PGLPPVPGAPGMPPGIPPLMPGVP [ZNF207] | 4.41 ± 0.2 | 4.5 ± 0.24 | – | –
GGGFAGGDGLLVGSEKVTMQNLND [KRT16] | 4.72 ± 0.34 | 4.73 ± 0.1 | – | –
LNVRSEEQVFNAVMAWVKYSIQER [KLHL20] | 2.54 ± 0.77 | 2.42 ± 0.23 | – | –
KHVLYVEHRHLNPDTELKRYFGAR [TCF25] | 2.29 ± 0.42 | 2.48 ± 0.36 | – | –
SKIDALSSEKLNLQKDLETRPTQH [CEP70] | 4.71 ± 0.29 | 4.71 ± 0.073 | – | –
RTMRLWNIEEIDEIPLVIKYKKAV [WDR88] | 2.3 ± 0.4 | 2.26 ± 0.31 | – | –
ACVVQQKDARQWFAELSVDMEKIL [CCNC] | 2.51 ± 0.26 | 2.42 ± 0.17 | – | –
GAHTLVNHGYAEPAAGRELPPDMT [KCNA3] | 4.87 ± 0.13 | 4.73 ± 0.17 | – | –
MNEHPVCSRTWTNRLCHQEMGSKK [SPAG8] | 3.94 ± 0.28 | 4.09 ± 0.12 | – | –
QPQQGYIPPMAQPGLPPVPGAPGM [ZNF207] | 4.36 ± 0.068 | 4.47 ± 0.28 | – | –
QKEVAGFVLNRLQYAIISEAWRLV [CRYL1] | 3.43 ± 0.53 | 3.37 ± 0.27 | – | –
KGYNIWTGGPDACLRCWDQRTIMK [TLE6] | 2.32 ± 0.18 | 2.45 ± 0.14 | – | –
VDQMNRIVEVLGIPPAAMLDQAPK [DYRK1B] | 3.62 ± 0.25 | 3.52 ± 0.15 | – | –
HHRYDDLVRTLYKVQNECPGITRV [CPN1] | 2.69 ± 0.34 | 2.67 ± 0.098 | – | –
